Tests used:
Assay in all cases: AUC
[1] = target: STAT2 N domain (aminoterminal domain), recombinant, mEGFP-tagged (human)
[2] = target: STAT2 N domain LL81,82AA, recombinant (human)
[3] = target: T1, STAT1 N domain (aminoterminal domain), recombinant
T1 chain: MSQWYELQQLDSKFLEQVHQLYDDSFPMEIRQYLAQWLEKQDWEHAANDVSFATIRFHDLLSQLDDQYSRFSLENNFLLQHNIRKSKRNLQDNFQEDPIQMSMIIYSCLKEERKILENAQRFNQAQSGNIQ

STAT2 N domain (aminoterminal domain), recombinant, mEGFP-tagged (human), sequence (chain, as listed by the source): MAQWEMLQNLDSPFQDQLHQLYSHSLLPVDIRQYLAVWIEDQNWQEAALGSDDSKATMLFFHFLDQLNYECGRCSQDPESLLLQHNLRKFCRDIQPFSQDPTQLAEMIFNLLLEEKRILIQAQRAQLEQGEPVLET
STAT2 N domain LL81,82AA, recombinant (human), sequence (chain, as listed by the source): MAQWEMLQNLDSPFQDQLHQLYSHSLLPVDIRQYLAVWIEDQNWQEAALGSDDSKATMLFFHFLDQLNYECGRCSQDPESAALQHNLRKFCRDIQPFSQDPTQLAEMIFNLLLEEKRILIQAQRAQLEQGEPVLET

Binder | Kd [1] | also measured
STAT1 N domain (aminoterminal domain), recombinant (domain or fragment, limits not printed (S1 Text/ref. 22); N domain taken up to the start of the conventional STAT1 core fragment (132-713); Strep-tag omitted limits not given; N domain taken up to the start of the core region (P52630 region from 138), homologous to STAT1 1-131; mEGFP and Strep-tag omitted) MSQWYELQQLDSKFLEQVHQLYDDSFPMEIRQYLAQWLEKQDWEHAANDVSFATIRFHDLLSQLDDQYSRFSLENNFLLQHNIRKSKRNLQDNFQEDPIQMSMIIYSCLKEERKILENAQRFNQAQSGNIQ | < 0.01 µM | 
STAT1 N domain (aminoterminal domain), recombinant (domain or fragment, limits not printed (S1 Text/ref. 22); N domain taken up to the start of the conventional STAT1 core fragment (132-713); Strep-tag omitted limits not given; same convention as m2; tags omitted) MSQWYELQQLDSKFLEQVHQLYDDSFPMEIRQYLAQWLEKQDWEHAANDVSFATIRFHDLLSQLDDQYSRFSLENNFLLQHNIRKSKRNLQDNFQEDPIQMSMIIYSCLKEERKILENAQRFNQAQSGNIQ |  | Kd [2]: 5.5 mM
STAT1 N domain (aminoterminal domain), recombinant (domain or fragment, limits not printed (S1 Text/ref. 22); N domain taken up to the start of the conventional STAT1 core fragment (132-713); Strep-tag omitted limits not printed (S1 Text/ref. 22); N domain taken up to the start of the conventional STAT1 core fragment (132-713); Strep-tag omitted) MSQWYELQQLDSKFLEQVHQLYDDSFPMEIRQYLAQWLEKQDWEHAANDVSFATIRFHDLLSQLDDQYSRFSLENNFLLQHNIRKSKRNLQDNFQEDPIQMSMIIYSCLKEERKILENAQRFNQAQSGNIQ |  | Kd [3]: 16.6 µM
STAT2 N domain (aminoterminal domain), recombinant, mEGFP-tagged (domain or fragment, limits not given; N domain taken up to the start of the core region (P52630 region from 138), homologous to STAT1 1-131; mEGFP and Strep-tag omitted limits not given; N domain taken up to the start of the core region (P52630 region from 138), homologous to STAT1 1-131; mEGFP and Strep-tag omitted) not shown | 705 µM | 

Reference: publication PMC5079630 (2016)
